Test results taken from article PMC8387365 (Nature chemical biology, 2021).

Target: T1, Kif4A-GFP (UniProt O95239 1-1232)
T1 sequence: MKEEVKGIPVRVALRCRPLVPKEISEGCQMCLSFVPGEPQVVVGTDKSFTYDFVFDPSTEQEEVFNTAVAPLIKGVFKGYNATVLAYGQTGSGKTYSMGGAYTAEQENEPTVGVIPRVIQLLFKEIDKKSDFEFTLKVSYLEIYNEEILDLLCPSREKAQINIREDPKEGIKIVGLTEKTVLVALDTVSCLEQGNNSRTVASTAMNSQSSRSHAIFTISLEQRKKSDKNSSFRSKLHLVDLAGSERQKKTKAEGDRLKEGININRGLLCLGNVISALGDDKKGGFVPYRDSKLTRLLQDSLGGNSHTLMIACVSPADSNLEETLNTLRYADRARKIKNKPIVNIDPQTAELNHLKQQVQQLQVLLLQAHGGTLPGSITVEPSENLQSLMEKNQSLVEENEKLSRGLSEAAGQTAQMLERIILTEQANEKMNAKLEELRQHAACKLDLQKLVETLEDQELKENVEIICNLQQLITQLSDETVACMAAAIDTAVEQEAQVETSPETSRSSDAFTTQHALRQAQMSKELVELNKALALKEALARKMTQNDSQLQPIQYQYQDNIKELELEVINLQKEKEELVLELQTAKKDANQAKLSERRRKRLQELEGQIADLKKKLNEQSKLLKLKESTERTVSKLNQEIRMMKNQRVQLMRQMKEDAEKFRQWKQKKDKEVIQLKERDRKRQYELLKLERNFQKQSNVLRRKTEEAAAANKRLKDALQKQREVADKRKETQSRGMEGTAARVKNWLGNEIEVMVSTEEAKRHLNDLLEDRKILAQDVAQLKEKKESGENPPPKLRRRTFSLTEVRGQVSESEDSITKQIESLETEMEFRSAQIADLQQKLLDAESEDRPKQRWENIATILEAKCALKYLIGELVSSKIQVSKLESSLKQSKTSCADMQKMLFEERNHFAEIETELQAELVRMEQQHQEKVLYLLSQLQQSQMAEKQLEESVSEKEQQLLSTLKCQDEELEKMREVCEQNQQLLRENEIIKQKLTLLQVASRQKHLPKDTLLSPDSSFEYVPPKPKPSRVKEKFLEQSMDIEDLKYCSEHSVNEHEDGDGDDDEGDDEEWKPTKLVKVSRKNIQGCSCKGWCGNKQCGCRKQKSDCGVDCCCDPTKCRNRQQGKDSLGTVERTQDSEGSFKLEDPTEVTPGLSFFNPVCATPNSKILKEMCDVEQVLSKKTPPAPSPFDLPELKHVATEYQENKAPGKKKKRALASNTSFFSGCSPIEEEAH
Experiment: BLI

Kd: 0.0125 ± 0.00209 µM
B1: full-length PRC1 (Protein Regulator of Cytokinesis-1) (natural protein)
chain: MRRSEVLAEESIVCLQKALNHLREIWELIGIPEDQRLQRTEVVKKHIKELLDMMIAEEESLKERLIKSISVCQKELNTLCSELHVEPFQEEGETTILQLEKDLRTQVELMRKQKKERKQELKLLQEQDQELCEILCMPHYDIDSASVPSLEELNQFRQHVTTLRETKASRREEFVSIKRQIILCMEALDHTPDTSFERDVVCEDEDAFCLSLENIATLQKLLRQLEMQKSQNEAVCEGLRTQIRELWDRLQIPEEEREAVATIMSGSKAKVRKALQLEVDRLEELKMQNMKKVIEAIRVELVQYWDQCFYSQEQRQAFAPFCAEDYTESLLQLHDAEIVRLKNYYEVHKELFEGVQKWEETWRLFLEFERKASDPNRFTNRGGNLLKEEKQRAKLQKMLPKLEEELKARIELWEQEHSKAFMVNGQKFMEYVAEQWEMHRLEKERAKQERQLKNKKQTETEMLYGSAPRTPSKRRGLAPNTPGKARKLNTTTMSNATANSSIRPIFGGTVYHSPVSRLPPSGSKPVAASTCSGKKTPRTGRHGANKENLELNGSILSGGYPGSAPLQRNFSINSVASTYSEFAKDPSLSDSSTVGLQRELSKASKSDATSGILNSTNIQS
